From US20250026814A1 (UNIVERSITY OF CHICAGO, published 2025) come the findings set out here.

The labels stand for the following.
T1: MERS-CoV RBD WT (MERS-CoV, UniProt K9N5Q8 367-606)
T1 sequence: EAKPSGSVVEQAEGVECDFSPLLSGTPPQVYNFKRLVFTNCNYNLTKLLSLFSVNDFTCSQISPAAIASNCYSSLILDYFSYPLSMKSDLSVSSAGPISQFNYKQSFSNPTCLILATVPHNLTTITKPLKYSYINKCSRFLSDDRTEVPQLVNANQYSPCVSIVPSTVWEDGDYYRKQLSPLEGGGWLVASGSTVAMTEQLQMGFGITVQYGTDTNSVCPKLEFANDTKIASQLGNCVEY

B1: S728-209 (antibody, V domains shown)
VH: QITLKESGPTLVKPTQTLTLTCTLSGFSLSTSGVSVGWIRQPPGKALEWLAVIFWDDDKRYNPSLKSRLTIAKDTSKSQVVLTMTNLDPVDTGTYYCVSGSSYYYYYYMDVWGKGTTVTVSS
VL: DIQMTQSPSSVSASIGDRVTITCRASQDISTWLAWYQQKPGRAPNLLIYGASSLQSGVPSRFSGSGSGTDFTLTISSLQPEDFATYYCQQATSFPLTFGGGTKVEIK
B2: S728-537 (antibody, V domains shown)
VH: QVQLVQSGAEVKKPGASVKVSCKTSGYTFTGFYLHWLRQAPGQGLEWMGRINPNTGDTDYAQKFQGRVTMTRDTSISTAYMELSRLRADDTAVYYCARTPGQTRQLFVGTNVLDVWGQGTMVTVSS
VL: DIQMTQSPSSVSASVGDRVTITCRASQGISSWLAWYQQKPGKAPKVLIFAASSLQSGVPSRFSGSGSGTDFTLTITSLQPEDFATYFCQQTNSFPPTFGGGTKVEIK
B3: S728-369 (antibody, V domains shown)
VH: QVQLQESGPGLVKPSQTLSLTCSVSGGSISSGGYYWSWIRQHPGKGLEWIGYMYYSGSTYYNPSLKSRVTIFVDTSKNHFSLKLTSVTAADTAVYYCARDSYENYYGSGSLEPNYHHYNMDVWGQGTTVTVSS
VL: DVQMTQSPSTLSASIGDRVTITCRASQSISGWLAWYQQRPGKAPKLLIYRASSLDFGVPSRFSGNGSGTEFTLTISSLQPDDFATYYCQQYHTYRTFGQGTKVEVK
B4: S728-430 (antibody, V domains shown)
VH: EVQLVESGGGLIQPGGSLRLSCAASGFTVSSNYMSWVRQAPGKGLEWVSVIYSGGSTYYADSVKGRFTISRDNSKNTLYLQMNSLRAEDTAVYYCARTPRGSRRGAFDIWGQGTMVTVSS
VL: not shown
B5: S728-1157 (antibody, V domains shown)
VH: EVQLVESGGGLVQPGGSLRLSCAASGLLVSRNYMNWVRQAPGKGLEWVSIIYSGGSTFYADSVEGRFTISRDESKNTLYLQMNSLRTDDTAVYYCARDLSDYGGIDCWGQGTLVTVSS
VL: YELTQPLSVSMALGQTARISCGGDNVGSQNVHWYQQRPGQAPVLVIYRDSNRPSGIPERFSGSKSGNTATLTISRAQAGDEADYYCQVWDSSTVAFGGGTKLTVL
B6: S728-1261 (antibody, V domains shown)
VH: QVQLQESGPGLVKPSGTLSLTCAVSGGSISNNNWWIWVRQPPGKGLEWIGEIHHSGSTDYNPSLKSRVTISIDKSKNQFSLRLSSVTAADTAVYYCARKPEPYYYYYYMDVWGKGTTVTVSS
VL: ETVLTQSPGTLSLSPGERATLSCRASQSVSSSYITWYQQKPGQAPRLLIYGASSRATGIPDRFSGSGSGTDFTLTISRLEPEDFAVYYCQQYRSPWGLTFGPGTKVDIK
B7: S728-537 (antibody, V domains shown)
VH: QVQLVQSGAEVKKPGASVKVSCKTSGYTFTGFYLHWLRQAPGQGLEWMGRINPNTGDTDYAQKFQGRVTMTRDTSISTAYMELSRLRADDTAVYYCARTPGQTRQLFVGTNVLDVWGQGTMVTVSS
VL: DIQMTQSPSSVSASVGDRVTITCRASQGISSWLAWYQQKPGKAPKVLIFAASSLQSGVPSRFSGSGSGTDFTLTITSLQPEDFATYFCQQTNSFPPTFGGGTKVEIK
B8: S728-430 (antibody, V domains shown)
VH: EVQLVESGGGLIQPGGSLRLSCAASGFTVSSNYMSWVRQAPGKGLEWVSVIYSGGSTYYADSVKGRFTISRDNSKNTLYLQMNSLRAEDTAVYYCARTPRGSRRGAFDIWGQGTMVTVSS
VL: not shown
B9: S728-1690 (antibody, V domains shown)
VH: QVQLVQSGAEVVKPGSSVKVSCKASGGTFTRYAISWVRQAPGQGPEWMGRIIPMFGIANYAQRFQGRVTMTADKSTSTAYMELSSLRSEDTAVYYCATCQYYYDSSGYGSLDYWGQGTQVTVSS
VL: EIVLTQSPGTLSLSPGERVTLSCRASQSISSNFLAWYQQKPGQAPRLLISGASSRATGIPDRFSGGGSGTDFTLTISRLEPEDFAVYYCQQYHSSPRTFGQGTKVEIK
B10: S144-466 (antibody, V domains shown)
VH: EVQLVQSGAEVKKPGESLKISCKGSGYRFTRYWIGWVRQMPGKGLEWMGIIYLGDSETRYSPSFQGQVTISADNSISTAYLQWSSLKASDTAMYYCARSSNWNYGDYWGQGTLVTVSS
VL: DIQMTQSPSTLSASVGDRVTITCRASQSITSWLAWYQQKSGKAPKLLIYDASSLESGVPSRFSGSGSGTEFTLTISSLQPDDFATYYCQQYNSYPWTFGQGTKVEIK
B11: S144-69 (antibody, V domains shown)
VH: EVQLVQSGAEVKKPGESLKISCKGSGYSFTSYWIGWVRQMPGKGLEWMGIIYPGDSDTRYSPSFQGQVTISADKSITTAYLQWSSLKASDTAMYYCARTQTTNWFDSWGQGTLVTVSS
VL: DIQMTQSPSTLSVSVGDRVTITCRASQSVSSWLAWYQQKPGKAPKLLIYDASSLESGVPSRFSGSGSGTEFTLTISSLQPDDFATYYCQQYNSFYTFGQGTKLEIK
B12: S728-1157 (antibody, V domains shown)
VH: EVQLVESGGGLVQPGGSLRLSCAASGLLVSRNYMNWVRQAPGKGLEWVSIIYSGGSTFYADSVEGRFTISRDESKNTLYLQMNSLRTDDTAVYYCARDLSDYGGIDCWGQGTLVTVSS
VL: YELTQPLSVSMALGQTARISCGGDNVGSQNVHWYQQRPGQAPVLVIYRDSNRPSGIPERFSGSKSGNTATLTISRAQAGDEADYYCQVWDSSTVAFGGGTKLTVL
B13: S24-1384 (antibody, V domains shown)
VH: EVQLVESGGGLVQPGGSLRLSCAVSGFTFSSYSMNWVRQAPGKGLEWVSYISSSSSIIYYADSVKGRFTISRDNAKNSLYLQMNSLRAEDTAVYYCARDFLDYSRSYSYGMDVWGQGTTVTVSS
VL: SYVLTQPPSVSVAPGQTARITCGGDNIGSKNVHWYQQKPGQAPVLVVFDDSDRPSGIPERFSGSNSGNTATLTISRVEAGDEADYYCQVWDSSSDHYVVFGGGTKLTVL
B14: S144-509 (antibody, V domains shown)
VH: EVQLVQSGAEVKKPGESLKISCKGSAYTFTTYWIGWVRQMPGKGLEWMGIIYPGDSDTRYSPSFQGQVTISADKSISTAYLQWSSLKASDTAMYYCARLLLVAGPFDYWGQGTLVTVSS
VL: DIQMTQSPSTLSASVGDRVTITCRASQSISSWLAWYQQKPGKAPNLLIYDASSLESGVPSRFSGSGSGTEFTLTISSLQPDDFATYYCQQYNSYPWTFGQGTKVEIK
B15: S564-152 (antibody, V domains shown)
VH: QVQLVESGGGVVQPGRSLRLSCAASGFTFSYYGMHWVRQAPGKGLEWVAVIWYDGSNKHYADSVKGRFTISRDNSKNTLYLQMNSLRAEDTAVYYCAKNAAPYCSGGSCYGTYFDYWGQGTLVTVSS
VL: DIQMTQSPSSLSASVGDRVTITCQASQDINNYLNWYQQKPGKAPKLLIYDASNLETGVPSRFSGSGSGTDFTFTISSLQPEDIATYYCQQYDNVPPHTFGQGTKLEIK
B16: S728-2036 (antibody, V domains shown)
VH: QVHLVQSGAEIRKPGASVMVSCKASGYTFTDYYIHWVRQAPGQGLEWMGWINPNSGGTNYAQKFQGRVTMTRDTSIRTAYMELSRLRSDDAAVYYCAREGISMLRGVRSWFDPWGQGTLVTVSS
VL: QSALTQPASVSGSPGQSITISCTGTSSDVGSYNLVSWYQQHPGKVPKLIIYEVTKRPSGVSNRFSGSKSGNTASLTISGLQTEDEADYYCCSYAGFSAWVFGGGTKLTVL
B17: S728-1981 (antibody, V domains shown)
VH: QVQLVQSGAEVKKPGASVKVSCKTSGYTFTNYFMHWVRQAPGQGLEWMGIINPSGGSASYAQKFQGRITMTSDTSTSTVYMELSSLRSEDTAVYYCAREDIIVVVPARPLDYWGHGTLVTVSS
VL: EIVLTQSPATLSLSPGERATLSCRASQSFSNYLAWYQQKPGQAPRLLIYDASNRATGIPARFSGSGSGTDFTLTISSLEPEDFAVYYCQQRSNWPPLLTFGGGTKVEIK

One experiment concerns the target T2, SARS-CoV-2 spike receptor-binding domain (RBD), WT (SARS-CoV-2, UniProt P0DTC2 319-541).
T2 construct: domain: RBD
Put plainly: epitope specificity column of the table of RBD-reactive mAbs (ELISA).
Consider B1, for which the binding result is on record as “binds”.
On the same count and under the same terms, the value for B2 was “binds”; that for B3 was “binds”; that for B4 was “binds”.
The same measure, in the same setting: as for B5, the entry is “binds”; as for B6, “binds”.

In the next experiment the target is T1, MERS-CoV RBD WT. In words: ELISA. A general note: An ELISA detects its analyte on a solid surface through an enzyme-linked reagent.
B7: the binding result is on record as “no binding (tested: 10 ug/ml top of dilution series)”.
Take B8: the binding result is on record as “no binding (tested: 10 ug/ml top of dilution series)”.
Same read-out and setting: the value for B9 was “no binding (tested: 10 ug/ml top of dilution series)”.

In a further experiment the target is SARS-CoV-1 RBD WT (SARS-CoV-1, UniProt P59594 306-527). Put plainly: ELISA.
On to B10, for which the binding result is listed as “binds”.
As for B7, the binding result was “no binding (tested: 10 ug/ml top of dilution series)”.
As for B8, the binding result was “no binding (tested: 10 ug/ml top of dilution series)”.
Turning to B11, the binding result is given as “binds”.
Same read-out and setting: as for B12, the entry is “no binding”; as for B13, “binds”; as for B9, “no binding (tested: 10 ug/ml top of dilution series)”.
Still for that read-out and setting: the value for B14 was “binds”; that for B15 was “binds”.

In a further experiment the target is T3, S1 monomeric WT (SinoBiological) (SARS-CoV-2, UniProt P0DTC2 16-685).
T3 construct: domain: S1
In words: ELISA.
Turning to B16, the binding result is listed as “binds”.
Same read-out and setting: the value for B17 was “binds”.
